T1: human recombinant soluble CD25 ectodomain (human, UniProt P01589 22-240)
T1 construct: extracellular domain; Immobilised on a Biacore CM3 chip; also called sCD25 ectodomain; human sCD25 ectodomain
T1 sequence (looked up): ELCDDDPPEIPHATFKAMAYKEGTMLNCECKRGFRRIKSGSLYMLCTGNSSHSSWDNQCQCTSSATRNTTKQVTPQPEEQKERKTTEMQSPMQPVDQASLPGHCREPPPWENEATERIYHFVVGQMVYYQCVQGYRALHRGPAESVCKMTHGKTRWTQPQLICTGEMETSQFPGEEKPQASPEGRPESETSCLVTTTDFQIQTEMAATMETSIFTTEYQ

T2: human CD25 on concanavalin-A activated CD25-positive human PBMCs and CD25-expressing lymphoma cell lines (human, UniProt P01589 22-272)
T2 construct: whole, on cells; also called IL2R-α; Interleukin-2 receptor-α
T2 sequence (looked up): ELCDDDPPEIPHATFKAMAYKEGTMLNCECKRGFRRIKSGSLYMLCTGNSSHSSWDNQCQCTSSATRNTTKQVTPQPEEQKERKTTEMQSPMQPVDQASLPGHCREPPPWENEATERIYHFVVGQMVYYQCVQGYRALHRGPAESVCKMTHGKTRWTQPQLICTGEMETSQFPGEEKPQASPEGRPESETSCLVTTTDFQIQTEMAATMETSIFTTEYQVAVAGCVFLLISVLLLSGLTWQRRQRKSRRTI

B1: ADCT-301 (antibody, V domains shown)
VH: QVQLVQSGAEVKKPGSSVKVSCKASGGTFSRYIINWVRQAPGQGLEWMGRIIPILGVENYAQKFQGRVTITADKSTSTAYMELSSLRSEDTAVYYCARKDWFDYWGQGTLVTVSS
VL: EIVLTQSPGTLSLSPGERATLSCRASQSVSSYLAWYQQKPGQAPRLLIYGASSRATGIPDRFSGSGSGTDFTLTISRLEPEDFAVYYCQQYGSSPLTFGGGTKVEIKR
modifications: pyrrolobenzodiazepine (PBD) warhead attached by a cleavable linker, drug-antibody ratio 2.3±0.3; attachment residues not stated
notes: also called HuMax-TAC-E of WO2014/57119
B2: HuMax®-TAC (antibody, V domains shown)
VH: QVQLVQSGAEVKKPGSSVKVSCKASGGTFSRYIINWVRQAPGQGLEWMGRIIPILGVENYAQKFQGRVTITADKSTSTAYMELSSLRSEDTAVYYCARKDWFDYWGQGTLVTVSS
VL: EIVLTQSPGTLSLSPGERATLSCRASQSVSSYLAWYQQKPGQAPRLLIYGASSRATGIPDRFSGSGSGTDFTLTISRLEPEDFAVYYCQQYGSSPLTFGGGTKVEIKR
notes: also called AB12; naked antibody

What was measured:
[1] = biological target: T1, human recombinant soluble CD25 …; assay: SPR (Biacore CM3 chip), sCD25 ectodomain immobilised; run 2
Method: (§1) The equilibrium dissociation constant, KD, was calculated for both molecules using BIAevaluation ® software.

[2] = biological target: T1, human recombinant soluble CD25 …; assay: SPR (Biacore CM3 chip), sCD25 ectodomain immobilised; run 4
Method: as §1

[3] = biological target: T1, human recombinant soluble CD25 …; assay: SPR (Biacore CM3 chip), sCD25 ectodomain immobilised; run 6
Method: as §1

[4] = biological target: T1, human recombinant soluble CD25 …; assay: SPR (Biacore CM3 chip), sCD25 ectodomain immobilised; run 3
Method: as §1

[5] = biological target: T2, human CD25 on concanavalin-A activated …; assay: flow cytometry, MFI on concanavalin-A activated CD25-positive human PBMCs (CD25-PE gate)
Method: FIG. 1. […] Isotype, non-targeting-ADC-FITC was used as the non-binding ADC control. The EC₅₀ was ≈0.03 μg/ml (180 pM).

[6] = biological target: T1, human recombinant soluble CD25 …; assay: SPR (Biacore CM3 chip), sCD25 ectodomain immobilised; mean of runs
Method: as §1

[7] = biological target: T1, human recombinant soluble CD25 …; assay: SPR (Biacore CM3 chip), sCD25 ectodomain immobilised; run 1
Method: as §1

[8] = biological target: T1, human recombinant soluble CD25 …; assay: SPR (Biacore CM3 chip), sCD25 ectodomain immobilised; run 5
Method: as §1

Row | Binder | Kd [1] [nM] | Kd [2] [nM] | Kd [3] [nM] | Kd [4] [nM] | EC50 [5] [nM] | Kd [6] [nM] | Kd [7] [nM] | Kd [8] [nM]
1 | B1 | 0.0205 | 0.0179 | 0.0244 | 0.0207 | ~0.18 | 0.0209 | 0.0205 | 0.0212
2 | B2 | 0.016 | 0.0148 |  | 0.0191 |  | 0.0158 | 0.0146 | 0.0144

Reference: US20210113587A1 (ADC THERAPEUTICS, published 2021)
